Assay results reported in patent US20100298415.

Assays:
Test in all cases: competition
Settings in all cases: PS three linkages at 5' and 3' ends of both strands; 5' C6 amino linker conjugated to Co(III) Schiff base; not inhibited at 1 uM; EMSA
Lef-1 = Lef-1 (UniProt Q9UJU2)
p105 (NF-kB) = target: T1, p105 (NF-kB) (UniProt P19838)
T1 sequence: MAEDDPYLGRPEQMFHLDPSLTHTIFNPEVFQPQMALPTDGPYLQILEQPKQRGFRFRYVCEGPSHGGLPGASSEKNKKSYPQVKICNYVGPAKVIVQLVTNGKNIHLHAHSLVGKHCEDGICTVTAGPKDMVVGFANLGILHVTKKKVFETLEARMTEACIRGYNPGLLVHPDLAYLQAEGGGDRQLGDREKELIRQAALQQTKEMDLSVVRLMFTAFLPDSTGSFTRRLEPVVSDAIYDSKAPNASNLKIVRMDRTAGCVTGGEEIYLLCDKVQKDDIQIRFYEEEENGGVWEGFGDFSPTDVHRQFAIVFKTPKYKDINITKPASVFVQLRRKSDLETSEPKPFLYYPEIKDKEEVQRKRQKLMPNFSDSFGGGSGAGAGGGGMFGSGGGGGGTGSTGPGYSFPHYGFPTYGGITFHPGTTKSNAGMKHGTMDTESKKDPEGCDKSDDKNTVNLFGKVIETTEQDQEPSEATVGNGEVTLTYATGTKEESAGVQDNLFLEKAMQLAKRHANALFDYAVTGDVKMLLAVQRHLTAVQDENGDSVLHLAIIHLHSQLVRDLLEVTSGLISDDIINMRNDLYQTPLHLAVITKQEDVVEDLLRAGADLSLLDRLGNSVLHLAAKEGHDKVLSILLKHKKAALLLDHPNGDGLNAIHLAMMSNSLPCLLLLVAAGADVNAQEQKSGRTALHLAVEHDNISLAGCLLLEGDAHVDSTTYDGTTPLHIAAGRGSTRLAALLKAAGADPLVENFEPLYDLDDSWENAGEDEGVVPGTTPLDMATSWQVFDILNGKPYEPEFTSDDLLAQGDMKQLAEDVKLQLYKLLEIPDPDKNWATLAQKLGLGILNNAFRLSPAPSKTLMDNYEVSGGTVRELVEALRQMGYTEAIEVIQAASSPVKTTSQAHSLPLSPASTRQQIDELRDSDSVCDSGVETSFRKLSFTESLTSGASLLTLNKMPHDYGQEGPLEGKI

MitF = target: T2, MitF (UniProt O75030)
T2 sequence: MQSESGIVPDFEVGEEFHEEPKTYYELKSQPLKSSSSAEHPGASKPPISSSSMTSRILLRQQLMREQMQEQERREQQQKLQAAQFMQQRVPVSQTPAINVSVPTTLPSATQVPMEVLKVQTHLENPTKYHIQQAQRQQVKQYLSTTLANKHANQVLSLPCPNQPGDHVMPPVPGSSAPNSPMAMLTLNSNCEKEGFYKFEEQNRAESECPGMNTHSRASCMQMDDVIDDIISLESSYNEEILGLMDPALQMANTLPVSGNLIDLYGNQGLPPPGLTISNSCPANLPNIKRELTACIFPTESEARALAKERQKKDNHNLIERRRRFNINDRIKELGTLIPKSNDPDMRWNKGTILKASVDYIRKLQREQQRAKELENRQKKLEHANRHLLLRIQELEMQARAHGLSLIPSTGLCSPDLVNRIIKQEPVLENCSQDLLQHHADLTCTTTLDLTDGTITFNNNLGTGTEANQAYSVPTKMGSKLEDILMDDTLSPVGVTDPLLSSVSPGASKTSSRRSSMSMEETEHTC

Measured: activity

Sequence of Lef-1 (Q9UJU2 whole entry): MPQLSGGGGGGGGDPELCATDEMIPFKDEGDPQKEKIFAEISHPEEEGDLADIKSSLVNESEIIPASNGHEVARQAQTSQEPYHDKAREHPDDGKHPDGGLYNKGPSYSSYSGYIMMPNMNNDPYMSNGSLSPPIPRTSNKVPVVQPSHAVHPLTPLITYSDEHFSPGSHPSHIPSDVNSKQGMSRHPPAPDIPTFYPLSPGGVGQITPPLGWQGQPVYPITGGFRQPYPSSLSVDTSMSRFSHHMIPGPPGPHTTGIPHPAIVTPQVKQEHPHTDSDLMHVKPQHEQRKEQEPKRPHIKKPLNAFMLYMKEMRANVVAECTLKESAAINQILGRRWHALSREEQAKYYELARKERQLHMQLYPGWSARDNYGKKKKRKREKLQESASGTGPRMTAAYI

TACGACAGGTGTTGGGA (double strand) [Co(III)-Ebox]
> 1 µM: all assays above
